Experimental data from patent US20250354175, “ATTP MV4-DERIVED SITE-SPECIFIC RECOMBINATION AND ITS USE FOR INTEGRATION OF SEQUENCE OF INTEREST” (INSTITUT NATIONAL DE RECHERCHE POUR L'AGRICULTURE, …, published 2025).

Assays:
[1] = target: T1, mv4Int (369 aa integrase) (Lactobacillus delbrueckii bacteriophage …); experiment: EMSA; stable with P'12 arm DNA; unstable without; room temperature, polydIdC; conditions: tags: expressed from pET15b; label: Cy3 on bottom strand
T1 chain: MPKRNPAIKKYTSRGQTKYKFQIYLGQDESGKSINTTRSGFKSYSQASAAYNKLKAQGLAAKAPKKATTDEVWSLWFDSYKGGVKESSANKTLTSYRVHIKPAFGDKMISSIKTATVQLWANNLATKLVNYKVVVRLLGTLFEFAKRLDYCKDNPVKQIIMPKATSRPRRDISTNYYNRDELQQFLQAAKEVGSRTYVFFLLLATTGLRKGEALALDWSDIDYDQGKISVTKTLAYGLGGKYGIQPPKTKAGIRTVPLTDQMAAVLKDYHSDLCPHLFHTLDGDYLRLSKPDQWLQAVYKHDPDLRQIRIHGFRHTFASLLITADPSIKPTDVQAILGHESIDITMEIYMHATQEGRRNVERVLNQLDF
Procedure: 5′ Cy3 end-labelled synthetic oligonucleotides (HPLC purified) were obtained from Eurofins. Labelled double strand DNA substrates were prepared by hybridization of complementary oligonucleotides (Table 7C) in 10 mM Tris pH 7.5, 50 mM NaCl by incubating the samples 5 min at 95° C. in a thermal cycler (Biorad) and decreasing the temperature of 1.5° C./min until it reaches 25° C. Binding reactions (20 μl) were performed with 0.87 pmol of labelled core- or arm-type DNA and 4.48 pmol of unlabelled arm- or core-type DNA in buffer containing 25 mM Tris pH 8, 75 mM NaCl, 10% glycerol, 0.5 mM DTT, 0.5 mM EDTA, 1 μg polydIdC (Sigma), 0.1 mg/ml BSA. The protein was added, the reaction performed at room temperature for 20 min and samples were loaded onto a non-denaturing 7.5% polyacrylamide gel (Mini-PROTEAN TGX, Biorad). The gels were run at 4° C., 75V for 2 h.
However, if DNA containing the P′1-P′2 arm-binding sites was added to the reaction, the inhibition was removed and ^λInt was able to stably bind to the core-binding sites. […]

[2] = target: T1, mv4Int (369 aa integrase); experiment: EMSA; with arm DNA; complex III increases with mv4Int; conditions: tags: expressed from pET15b; label: Cy3 on bottom strand
Procedure: However, if DNA containing the P′1-P′2 arm-binding sites was added to the reaction, the inhibition was removed and ^λInt was able to stably bind to the core-binding sites. To determine if ^mv4Int N-ter domain also exerts such inhibitory effect on its C-ter domain, they compared the ^mv4Int binding to a labelled 35-bp dsDNA containing the 21-bp core-attP region (Table 7C), in the presence or absence of unlabelled dsDNA containing the P′1 and P′2 arm-type binding sites (Table 7C). ^mv4Int binding to the COC′ sequence appeared quite unstable, as only faint bands and strong background smear can be observed (lane 3, FIG. 8A). Addition of a 28-bp dsDNA containing the P′12 sequences (Table 7C) greatly stimulates and stabilizes ^mv4Int binding to the core-attP sequence and led to the formation of three complexes (lane 4, FIG. 8A). […] To ensure that the stabilization effect was due to the binding of the N-ter domain of ^mv4Int to the arm-type binding site, the 28-pb P′12 dsDNA was replaced by a DNA duplex of 40 pb containing the P′1 and P′2 sites (Table 7C). A stabilization effect on the binding to the COC′ sequence was observed (lane 5, FIG. 8A), with the formation of two complexes (II* and III*) of mobility lower than the complexes observed with the 28-bp P′12 fragment. […]

B1: COC' WT core-attP 35 bp (dsDNA)
DNA 1: GGTATTGGAAAGAACCTGTACTCTCCTTGCGTAAC
DNA 2: GTTACGCAAGGAGAGTACAGGTTCTTTCCAATACC
B1: binds [1].

B2: BOB' WT attB 35 bp (dsDNA)
DNA 1: GGTATTGTTCAAATCCTGTACTCTCCTTGCGTAAC
DNA 2: GTTACGCAAGGAGAGTACAGGATTTGAACAATACC
B2: binds [2].
